Laboratory results: patent publication US20210253725A1 (BIONTECH, published 2021)

T1: CD27 expressed on the cell surface (HT1080_CD27 cells) (human, UniProt P26842 20-260)
T1 sequence (looked up): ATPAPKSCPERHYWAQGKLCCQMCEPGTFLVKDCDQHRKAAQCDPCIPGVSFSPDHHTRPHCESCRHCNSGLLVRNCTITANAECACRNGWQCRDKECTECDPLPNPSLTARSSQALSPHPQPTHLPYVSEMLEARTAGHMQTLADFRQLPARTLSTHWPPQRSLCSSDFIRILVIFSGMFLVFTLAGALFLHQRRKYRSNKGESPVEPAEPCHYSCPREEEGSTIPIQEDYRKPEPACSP

T2: CD27 protein (His-tagged, Sino Biological Inc. 10039-H08B1) (human, UniProt P26842 20-192)
T2 construct: bought; coated onto ELISA plates; also called human CD27; recombinant protein; not shown: His tag
T2 sequence (looked up): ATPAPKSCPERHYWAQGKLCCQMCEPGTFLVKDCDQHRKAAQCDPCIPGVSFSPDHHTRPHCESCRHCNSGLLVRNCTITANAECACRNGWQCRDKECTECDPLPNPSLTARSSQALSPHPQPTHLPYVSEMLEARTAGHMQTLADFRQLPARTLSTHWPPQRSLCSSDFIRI

B1: P018.S.10.A.H02 (antibody, V domains shown)
VH: QSLEESGGRLVTPGGSLTLTCTVSGIDLSSYAMGWFRQAPGKGLEYIGIIYSSGSTWFANWVKGRFTISKTSTTVDLKMTSLTTEDTATYFCARYSAADHGDKFKLWGQGTLVTVSS
VL: AAVLTQTPSPVSAAVGGTVSISCQSSKNIFDNTRLSWFQQKPGQPPKQLIYGASTLASGVPSRFSGSGSGTQFTLTISGVQSDDAATYYCLGEYSSDSDTSFGGGTEVVVK
notes: V regions on human Ig constant parts; also called AB27_185
B2: P018.S.01.A.C02 (antibody, V domains shown)
VH: QSLEESGGDLVQPGASLTLTCTASGLDFISSYMCWVRQAPGKGLEWIGCIAPGGGNTYYATWAKGRFTFSETSSTTVTLQMTSLTAADTATYFCARTYPSIWYFGLWGPGTLVTVSS
VL: DVVMTQTPASVSEPVGGTVTIKCQASQSIGSNLGWYQQKPGQPPKLLIYGASTLASGVSSRFKGSGSGTEFTLTMSDLESADAATYYCQSFYAASSAFGGGTEVVVK
notes: V regions on human Ig constant parts; also called AB27_7
B3: P018.S.10.A.B06 (antibody, V domains shown)
VH: QSVEESGGRLVTPGTPLTLTCTVSGFSLSSSHMCWVRQAPGKGLEWIGVINIGDIAYYASWAKGRFTISKTSTTVDLKMTSLTAADTATYFCARENAYGTGWDFDLWGQGTLVTVSS
VL: AYDMTQTPASVEVAVGGTVTIKCQASESIRNALAWYQQKPGQPPKQLIYSASTLASGVPSRFKGSGSGTEFTLTISGVQSDDAATYYCQQGFSLRNVDNAFGGGTEVVVK
notes: V regions on human Ig constant parts; also called AB27_169
B4: P018.S.07.A.H05 (antibody, V domains shown)
VH: QSLEESGGRLVTPGTPLTLTCTASGFSLNSYYINWVRQAPGKGLEWIGFINGYDNTWYASWAKGRFTISRTSTTVDLRITSPTTEDTATYFCARDPGGASGTGRLDLWGQGTLVTVSS
VL: DIVMTQTPASVSAAVGGTVTINCQASQSISTALAWYQQKPGQRPKLLIYDASKLASGVPSRFKGNGSGTEFTLTISDLESADAATYYCQCTYYDAYDVGAFGGGTEVVVN
notes: V regions on human Ig constant parts; also called AB27_133
B5: P018.S.02.A.D04 (antibody, V domains shown)
VH: QEQLVESGGGLVQPEGSLTLTCTASALSFYSAWICWVRQAPGKGLKWIACIYAGGSRSTYYATWATGRFTISEASSTTVTLQMTSLTAADTATYFCARSLSADTYWNLWGPGTLVTVSS
VL: DVVMTQTPASVEAAVGGTVTIKCQASESISSWLAWYQQKPGQPPKLLIYRASTLESGVPSRFKGSGSGTEFTLTISDLESADAATYYCQNNGGGTSGYTFGGGTEVVVK
notes: V regions on human Ig constant parts; also called AB27_33
B6: P018.S.02.A.B03 (antibody, V domains shown)
VH: QSLEESGGGLVKPGGTLTLTCTASGFSLSSTYMSWVRQAPGKGLEWIGDIYTDGSTYYASWVNGRFTISKTSTTVDLKMTSLTTEDTATYFCARGAAAAYDLWGQGTLVTVSS
VL: AYDMTQTPASVSAAVGGTVTIKCQASQNIYTNLAWYQQKPGQPPKLLIYGVSNLESGVPSRFKGSGSGTQFTLTISGVQSDDAATYYCQQGYSSTNVENAFGGGTEVVVK
notes: V regions on human Ig constant parts; also called AB27_30

Columns and labels:
[1] = molecular target: T1, CD27 expressed on the cell surface …; experiment: cell-based or functional assay
[2] = molecular target: T2, CD27 protein (His-tagged, Sino …); experiment: ELISA on coated His-tagged CD27
[3] = molecular target: T1, CD27 expressed on the cell surface …; experiment: cellular binding assay, HT1080_CD27 cells
Also: test concentration or dose not given here.

Binder	IL-8, cross-linked by F(ab')2 fragment [abs. corr.] [1] [abs. corr.]	IL-8 [abs. corr.] [1] [abs. corr.]	ELISA [abs. corr.] [2] [abs. corr.]	Cellular binding assay [RFU] [3] [RFU]
B1	2.1	1.57	3.25	144
B2	1.48	0.395	3.25	324
B3	1.46	0.455	3.25	308
B4	1.19	-0.16	3.25	256
B5	1.37	0.569	3.27	390
B6	1.16	0.12	3.25	332
